According to paper PMC6072280 (Nuclear medicine and biology, 2018):

What was measured:
[1] = in vivo; conditions: male, ICR-SCID, mouse, iv, total radioactivity; for tissue uptake at 1 h / tissue uptake at 4 h / tissue uptake at 24 h: 20 μCi
[2] = test system: PC-3 tumor-bearing SCID mice
[3] = molecular target: GRPR (Homo sapiens, UniProt P30550); conditions: GRPR-expressing human PC-3 cells, 125I-[Tyr4]-BBN, 1 h 37°C
Chain of GRPR (P30550 whole entry): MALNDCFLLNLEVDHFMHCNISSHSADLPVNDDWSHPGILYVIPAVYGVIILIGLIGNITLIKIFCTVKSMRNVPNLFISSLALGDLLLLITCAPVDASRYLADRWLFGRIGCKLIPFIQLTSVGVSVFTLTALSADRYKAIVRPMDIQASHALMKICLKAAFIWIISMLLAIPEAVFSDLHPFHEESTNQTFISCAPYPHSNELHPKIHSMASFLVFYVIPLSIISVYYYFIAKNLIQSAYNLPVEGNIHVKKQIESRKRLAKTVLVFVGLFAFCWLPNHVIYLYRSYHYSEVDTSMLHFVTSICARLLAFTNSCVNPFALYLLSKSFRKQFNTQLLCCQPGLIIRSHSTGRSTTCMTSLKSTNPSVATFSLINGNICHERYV

Compound: CC(C)C[C@H](NC(=O)C[C@H](O)[C@H](CC(C)C)NC(=O)[C@H](Cc1c[nH]cn1)NC(=O)CNC(=O)[C@@H](NC(=O)[C@H](C)NC(=O)[C@H](Cc1c[nH]c2ccccc12)NC(=O)[C@H](CCC(N)=O)NC(=O)[C@@H](Cc1ccccc1)NC(=O)CCCCCNC(=O)[C@H](CCC(=O)NCCCC[C@@H]1NC(=O)[C@@H](Cc2ccc(O)cc2)NC(=O)[C@H](CC(=O)O)NC(=O)CNC(=O)[C@H](CCCNC(=N)N)NC1=O)NC(=O)CN1CCN(CC(=O)O)CCN(CC(=O)O)CCN(CC(=O)O)CC1)C(C)C)C(N)=O [[RGD-Glu-[[^90Y]Y-DO3A]-6-Ahx-RM2], metal not drawn]
- tissue uptake at 1 h ([1]; bone): 0.45 ± 0.08 %ID/g
- tissue uptake at 4 h ([1]; bone): 0.29 ± 0.05 %ID/g
- tissue uptake at 24 h ([1]; bone): 0.33 ± 0.12 %ID/g
- tissue uptake at 1 h ([1]; brain): 0.03 ± 0.01 %ID/g
- tissue uptake at 4 h ([1]; brain): 0.01 %ID/g
- tissue uptake at 1 h ([1]; heart): 0.31 ± 0.06 %ID/g
- tissue uptake at 4 h ([1]; heart): 0.16 ± 0.05 %ID/g
- tissue uptake at 24 h ([1]; heart): 0.15 ± 0.04 %ID/g
- tissue uptake at 1 h ([1]; kidneys): 2.36 ± 0.49 %ID/g
- tissue uptake at 4 h ([1]; kidneys): 1.54 ± 0.31 %ID/g
- tissue uptake at 24 h ([1]; kidneys): 0.89 ± 0.21 %ID/g
- tissue uptake at 1 h ([1]; large intestine): 0.64 ± 0.12 %ID/g
- tissue uptake at 4 h ([1]; large intestine): 0.66 ± 0.26 %ID/g
- tissue uptake at 24 h ([1]; large intestine): 0.31 ± 0.06 %ID/g
- tissue uptake at 1 h ([1]; liver): 0.39 ± 0.08 %ID/g
- tissue uptake at 4 h ([1]; liver): 0.35 ± 0.07 %ID/g
- tissue uptake at 24 h ([1]; liver): 0.29 ± 0.15 %ID/g
- tissue uptake at 1 h ([1]; lung): 0.8 ± 0.27 %ID/g
- tissue uptake at 4 h ([1]; lung): 0.44 ± 0.06 %ID/g
- tissue uptake at 24 h ([1]; lung): 0.37 ± 0.1 %ID/g
- tissue uptake at 1 h ([1]; muscle): 0.22 ± 0.06 %ID/g
- tissue uptake at 4 h ([1]; muscle): 0.11 ± 0.02 %ID/g
- tissue uptake at 24 h ([1]; muscle): 0.1 ± 0.03 %ID/g
- tissue uptake at 1 h ([1]; pancreas): 6.81 ± 0.92 %ID/g
- tissue uptake at 4 h ([1]; pancreas): 0.55 ± 0.12 %ID/g
- tissue uptake at 24 h ([1]; pancreas): 0.27 ± 0.05 %ID/g
- tissue uptake at 1 h ([1]; small intestine): 1.41 ± 0.32 %ID/g
- tissue uptake at 4 h ([1]; small intestine): 0.39 ± 0.09 %ID/g
- tissue uptake at 24 h ([1]; small intestine): 0.34 ± 0.07 %ID/g
- tissue uptake at 1 h ([1]; spleen): 1.36 ± 0.25 %ID/g
- tissue uptake at 4 h ([1]; spleen): 1.07 ± 0.18 %ID/g
- tissue uptake at 24 h ([1]; spleen): 1.21 ± 0.23 %ID/g
- tissue uptake at 1 h ([1]; stomach): 1.19 ± 0.34 %ID/g
- tissue uptake at 4 h ([1]; stomach): 0.33 ± 0.07 %ID/g
- tissue uptake at 24 h ([1]; stomach): 0.22 ± 0.03 %ID/g
- tissue uptake at 1 h ([1]; tumor (PC-3 xenograft)): 8.7 ± 0.35 %ID/g
- tissue uptake at 4 h ([1]; tumor (PC-3 xenograft)): 4.48 ± 0.31 %ID/g
- tissue uptake at 24 h ([1]; tumor (PC-3 xenograft)): 5.28 ± 0.12 %ID/g
- dose excreted at 1 h ([1]; urine, 20 uCi): 84.6 ± 3.52%
- dose excreted at 4 h ([1]; urine, 20 uCi): 93.4 ± 1.26%
- dose excreted at 24 h ([1]; urine, 20 uCi): 92.7 ± 2.06%
- tissue uptake dose at 1 h ([1]; whole blood, 20 uCi): 0.18 ± 0.04 %ID
- tissue uptake dose at 4 h ([1]; whole blood, 20 uCi): 0.01 %ID
- tissue uptake dose at 24 h ([1]; whole blood, 20 uCi): 0.01 %ID
- Biodistribution, Urine (urinary excretion) ([2]; 4 h p.i., i.v., n = 5): 93.4 %ID
- In vivo stability, RP-HPLC of urinary radioactivity ([2]; urine collected from tumor-bearing mice): eluted with a similar retention time

Compound: CC(C)C[C@H](NC(=O)C[C@H](O)[C@H](CC(C)C)NC(=O)[C@H](Cc1c[nH]cn1)NC(=O)CNC(=O)[C@@H](NC(=O)[C@H](C)NC(=O)[C@H](Cc1c[nH]c2ccccc12)NC(=O)[C@H](CCC(N)=O)NC(=O)[C@@H](Cc1ccccc1)NC(=O)CCCCCNC(=O)[C@H](CCC(=O)NCCCC[C@@H]1NC(=O)[C@@H](Cc2ccc(O)cc2)NC(=O)[C@H](CC(=O)O)NC(=O)CNC(=O)[C@H](CCCNC(=N)N)NC1=O)NC(=O)CN1CCN(CC(=O)O)CCN(CC(=O)O)CCN(CC(=O)O)CC1)C(C)C)C(N)=O [[RGD-Glu-[DO3A]-6-Ahx-RM2]] [[Cyclo-(Arg-Gly-Asp-DTyr-Lys)-(DO3A)-Glu-(6-Ahx-D-Phe-Gln-Trp-Ala-Val-Gly-His-Sta-Leu-NH2)]]
- IC50, PC-3 [3]: single-digit, nanomolar range
